Consider 2 molecules from publication PMC4380498, “Molecular Insights into Frataxin-Mediated Iron Supply for Heme Biosynthesis in Bacillus subtilis” (PLoS ONE, 2015).

Series [1] deals with the molecule itself. Nature of the series: SEC; separation of the apo- and holo-forms of bsNos by size-exclusion chromatography after affinity purification from the crude protein extract. (Size exclusion chromatography separates by hydrodynamic size, large species first.)
The target in series [2] is T1, Bacillus subtilis ferrochelatase HemH, recombinant Strep-tag II variant (Bacillus subtilis 168, UniProt P32396 1-310).
T1 construct: ferrochelatase HemH of Bacillus subtilis 168, gene amplified from genomic DNA; Expressed from the pASK-IBA3 vector; also called HemH-Strep II; HemH-StrepII; not shown: Strep-tag II, C-terminal, kept
T1 sequence: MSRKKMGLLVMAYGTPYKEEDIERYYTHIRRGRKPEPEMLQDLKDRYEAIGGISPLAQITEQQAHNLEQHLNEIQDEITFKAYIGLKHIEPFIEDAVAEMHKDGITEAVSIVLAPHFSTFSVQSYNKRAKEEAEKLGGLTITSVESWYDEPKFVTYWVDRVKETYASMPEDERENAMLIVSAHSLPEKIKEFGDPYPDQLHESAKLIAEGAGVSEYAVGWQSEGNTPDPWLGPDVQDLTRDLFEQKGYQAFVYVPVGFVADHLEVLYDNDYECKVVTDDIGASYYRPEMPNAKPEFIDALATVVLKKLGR
Put plainly: MST; 50 nM fluorescently labelled holo-Fra (iron-charged); HemH titrated from 42.6 μM to 0.01 μM in TRIS-based NT binding analysis buffer; 25°C; Monolith NT.115. Particulars: both partners purified.

For series [3], the target named is T1, Bacillus subtilis ferrochelatase HemH, …. Nature of the series: cell-based or functional assay.

B1: Bacillus subtilis nitric oxide synthase bsNos, recombinant His6-tagged (enzyme, Bacillus subtilis 168, UniProt O34453 1-363, looked up)
chain: MEEKEILWNEAKAFIAACYQELGKEEEVKDRLADIKSEIDLTGSYVHTKEELEHGAKMAWRNSNRCIGRLFWNSLNVIDRRDVRTKEEVRDALFHHIETATNNGKIRPTITIFPPEEKGEKQVEIWNHQLIRYAGYESDGERIGDPASCSLTAACEELGWRGERTDFDLLPLIFRMKGDEQPVWYELPRSLVIEVPITHPDIEAFSDLELKWYGVPIISDMKLEVGGIHYNAAPFNGWYMGTEIGARNLADEKRYDKLKKVASVIGIAADYNTDLWKDQALVELNKAVLHSYKKQGVSIVDHHTAASQFKRFEEQEEEAGRKLTGDWTWLIPPISPAATHIFHRSYDNSIVKPNYFYQDKPYE
notes: nitric oxide synthase bsNos of Bacillus subtilis 168, gene amplified from genomic DNA; The holo-form (with heme b) is called dimeric and the apo-form monomeric; The two were separated by size-exclusion chromatography; also called Nos-His6; holo-bsNos; not shown: His6, N-terminal, kept
The stoichiometry N is the number of molecules, sites or subunits per partner or assembly. B1: in series [1], the “stoichiometry N” value came to 2.

B2: Bacillus subtilis frataxin homologue Fra, recombinant His6-tagged (natural protein, Bacillus subtilis 168)
chain: MDVFSEYLAGIADPFHRERTEEVLTWIKNKYPNLHTEIKWNQPMFTDHGTFIIGFSVSKKHLAVAPEKVTIAHVEDDIVKAGYDYTEQLIRIPWNGPVDYTLLEKMIEFNILDKADCSTFWRK
notes: frataxin homologue Fra of Bacillus subtilis 168, gene amplified from genomic DNA; Used iron-loaded (holo-Fra, anaerobic incubation with FeCl2) or iron-free (apo-Fra); For MST it was labelled with the cysteine-reactive Monolith NT.115 Protein Labeling Kit RED; The methods say N-terminal His6-tag fusions, while legends print Fra-His6; also called Fra-His6; holo-Fra; not shown: His6, N-terminal, kept
As a reminder, the Kd is the constant that tells how readily two partners part at equilibrium. B2: the dissociation constant Kd in series [2] came out at 1630 ± 20 nM. Besides, the “kcat(obs) of the frataxin-dependent conversion of protoporphyrin IX into heme b by HemH (holo-Fra varied between 0.1 and 10 μM, Michaelis-Menten fit)” value in series [3] amounted to 0.925 s⁻¹.
